# Measured values as given in PMC9943654, “The recognition mode between hsRBFA and mitoribosome 12S rRNA during mitoribosomal biogenesis”.
# T1: hsRBFA Nt (Homo sapiens, UniProt Q8N0V3 42-89)
# T1 chain: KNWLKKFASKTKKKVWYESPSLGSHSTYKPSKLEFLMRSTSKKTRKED
# T2: hsRBFA KH-like (Homo sapiens, UniProt Q8N0V3 86-201)
# T2 sequence: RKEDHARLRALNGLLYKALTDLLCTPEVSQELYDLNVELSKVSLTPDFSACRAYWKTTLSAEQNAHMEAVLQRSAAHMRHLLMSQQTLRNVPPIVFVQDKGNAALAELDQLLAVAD
# T3: hsRBFA Nt-KH (Homo sapiens, UniProt Q8N0V3 42-201)
# T3 sequence: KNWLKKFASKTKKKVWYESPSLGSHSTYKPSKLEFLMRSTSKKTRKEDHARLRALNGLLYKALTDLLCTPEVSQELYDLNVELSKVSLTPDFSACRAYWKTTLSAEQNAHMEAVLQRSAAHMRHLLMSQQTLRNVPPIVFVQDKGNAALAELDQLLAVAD
# B1: DNA (dsDNA)
# DNA 1: TTGGTCAG
# DNA 2: CTGACCAA
# Tests used:
# hsRBFA Nt = target: T1, hsRBFA Nt; test: EMSA; complex stays in well; EMSA: 20 mM Tris-HCl pH 8.0, 200 mM NaCl, 37 C 30 min, 200 nM ssRNA or 2 uM dsRNA; FP: same buffer, 40 nM 5'-FAM RNA, temperature not stated; conditions: protein: recombinant, tags: His6-MBP N-terminal, hairpin
# hsRBFA KH-like = target: T2, hsRBFA KH-like; test: EMSA; EMSA: 20 mM Tris-HCl pH 8.0, 200 mM NaCl, 37 C 30 min, 200 nM ssRNA or 2 uM dsRNA; FP: same buffer, 40 nM 5'-FAM RNA, temperature not stated; conditions: protein: recombinant, tags: His6-MBP N-terminal
# hsRBFA Nt-KH = target: T3, hsRBFA Nt-KH; test: as above; conditions: protein: recombinant, tags: His6-MBP N-terminal
binder,measurement,setting,value
GGUGGCGGUGCUUCAUUCGUGAAGCGCGUCACC (structured_RNA) [h28],binding result,hsRBFA Nt,binds
same,binding result,hsRBFA KH-like; hairpin,no binding
same,binding result,hsRBFA Nt-KH; hairpin,binds
B1,binding result,hsRBFA Nt-KH; blunt,binds
GGCGUCACCCUCUUCGGAGACAAGUCGCC (structured_RNA) [h44],binding result,hsRBFA Nt; label: 5'-FAM in FP,binds
same,binding result,"hsRBFA KH-like; label: 5'-FAM in FP, hairpin",no binding
same,binding result,"hsRBFA Nt-KH; label: 5'-FAM in FP, hairpin",binds
CGCCGCGAAGGCGGCG (structured_RNA) [GC],binding result,hsRBFA Nt-KH; hairpin,binds
GACGAAC (ssRNA) [ssRNA-3'end],binding result,hsRBFA KH-like; single strand,no binding
UAAGUGUACUGGAAAGUGCACUUG (structured_RNA) [h45],binding result,hsRBFA Nt,binds
same,binding result,hsRBFA KH-like; hairpin,no binding
same,binding result,hsRBFA Nt-KH; hairpin,binds
AUAAUAGAAGUAUUAU (structured_RNA) [AU],binding result,hsRBFA Nt-KH; hairpin,binds
